Source: IntAct's records for PubMed 28776325

Experiments:
[1] = biological target: rab4a_human RAB4A (UniProt P20338)
[2] = biological target: rab4a_human RAB4A (UniProt P20338); remark: listed apart in the source

Chain of rab4a_human RAB4A (P20338 whole entry): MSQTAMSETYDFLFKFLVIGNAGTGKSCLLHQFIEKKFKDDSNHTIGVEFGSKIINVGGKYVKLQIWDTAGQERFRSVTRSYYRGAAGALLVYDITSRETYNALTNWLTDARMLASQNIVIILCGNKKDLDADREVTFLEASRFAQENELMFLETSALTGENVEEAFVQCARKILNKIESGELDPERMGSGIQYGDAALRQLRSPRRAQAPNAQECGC
Chain of Protein NDRG1 (Homo sapiens), Q92597 L146P (Q92597 whole entry L146P): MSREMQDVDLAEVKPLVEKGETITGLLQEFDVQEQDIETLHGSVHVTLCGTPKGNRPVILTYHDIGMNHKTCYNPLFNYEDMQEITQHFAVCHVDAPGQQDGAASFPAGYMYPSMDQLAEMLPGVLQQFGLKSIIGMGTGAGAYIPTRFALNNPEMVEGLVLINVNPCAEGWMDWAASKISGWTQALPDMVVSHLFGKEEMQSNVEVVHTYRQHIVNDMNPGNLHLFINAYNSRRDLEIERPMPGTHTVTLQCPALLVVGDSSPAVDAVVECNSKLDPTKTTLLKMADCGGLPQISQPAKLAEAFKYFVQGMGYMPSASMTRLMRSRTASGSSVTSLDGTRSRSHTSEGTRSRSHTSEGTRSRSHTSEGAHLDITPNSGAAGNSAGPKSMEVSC
Chain of Protein NDRG1 (Homo sapiens), Q92597 R234Q (Q92597 whole entry R234Q): as the sequence (Q92597 whole entry L146P) above, with P146L, R234Q counted along it

| Substance | effect of a mutation on the interaction [1] | effect of a mutation on the interaction [2] |
| --- | --- | --- |
| Protein NDRG1 (Homo sapiens), Q92597 L146P | with no effect | decreasing interaction strength |
| Protein NDRG1 (Homo sapiens), Q92597 R234Q | with no effect | – |
